Measurements published in article PMC7141136, “Ohr and OhrR Are Critical for Organic Peroxide Resistance and Symbiosis in Azorhizobium caulinodans ORS571”.

How the values were obtained:
[1] = molecular target: OhrR (AZC_3555) of Azorhizobium caulinodans ORS571, 6×His-tagged recombinant protein (Azorhizobium caulinodans ORS571); assay: non-reducing SDS-PAGE; purified OhrR oxidised with 0.1 mM CuOOH for 10 min, then non-reducing SDS-PAGE; covalent dimer
[2] = molecular target: OhrR^C121S (Azorhizobium caulinodans ORS571); assay: as above
[3] = molecular target: T1, OhrR (Azorhizobium caulinodans ORS571, UniProt A8IEZ4 1-144); assay: EMSA; reduced (2.5 mM DTT in buffer); dose-dependent; 50 mM Tris-HCl pH 8.3, 0.25 M KCl, 2.5 mM DTT, 5 mM MgCl2, 0.05 ug/mL poly(dI-dC), 2.5 mM EDTA, 1% glycerol; 20 nM DNA, 20 uL, 20 min, room temperature; 6% native PAGE in 0.5x TBE; settings: protein: recombinant; tags: N-terminal 6xHis (pET-28a); chain copies: 2; label: none (GelRed stain)
T1 sequence: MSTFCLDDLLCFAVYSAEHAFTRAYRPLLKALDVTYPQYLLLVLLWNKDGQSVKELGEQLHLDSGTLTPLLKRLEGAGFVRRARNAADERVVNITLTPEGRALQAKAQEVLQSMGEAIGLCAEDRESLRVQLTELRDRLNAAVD

OhrR (AZC_3555) of Azorhizobium caulinodans ORS571, 6×His-tagged recombinant protein (natural protein)
stoichiometry N [1]: 2

OhrR^C121S (natural protein)
stoichiometry N [2]: 2

B1: ohr promoter probe (181 bp) (dsDNA)
DNA 1: CAAAGGGTTAGTTTTCCGTTGCGGAAGGTTGGGTGATGTTGACGGTGGTCTGCAAAATAAGTTTGACACAATCAAATTGTGTGCTACTTAAATGGCCATGGAAGCGGCTTGGCCGTTTCTCATCGATTTCTCAAGGCACGAGGATCAAGCGATGTCCGTCGATGTGAAGTACACCACCAAG
DNA 2: CTTGGTGGTGTACTTCACATCGACGGACATCGCTTGATCCTCGTGCCTTGAGAAATCGATGAGAAACGGCCAAGCCGCTTCCATGGCCATTTAAGTAGCACACAATTTGATTGTGTCAAACTTATTTTGCAGACCACCGTCAACATCACCCAACCTTCCGCAACGGAAAACTAACCCTTTG
binding result [3]: binds
